Results reported in a protein production outcome set (Wang et al. 2014).

Assay: label from the status in PepcDB records

| Sequence | protein production |
| --- | --- |
| MKTTQRTAGWYHVMAAVTVMIWGTTFVATKVLIKYGLSPVDILFYRFLLAYICIWFFSPRVLLAKSWQDELRFVGLGLCGGSLYFVAENTALGMTLASNVSLIICTTPILTALLAPFFYKGDKLKARLIGGSLMALIGVGLVVFNGSFILQLSPAGDILTLIAALMWAFYCLLLRRMNTHYPTLFITRKVFFYGLVTLLPLFLVYPLQTDIHILFRPVVALNLLFLGVIASMLCYIMWNTAVKQLGVVCATSYIYVVPLITLLTSAIVIDETITIVALLGSALILSGVYIAERGVNLKK | failed |
| MKTVKDAEIFCQYIAHEYLGKRNYKLLEDIIDKRITIIGTGAHEVSRNIQELMTALNKEAELWDGTFIIEDEWYQGTELADNLFVVIGQIEGRQNSNDQLVYSFSSRVTFIIEYHDMQWKIIHVHQSVPDYSQGDDEFFPQRIVEESNAQLKKEIAEKTKELEMSNQQVIYNLRHDYLTGILNRPSLEKEVTEAMSNHQYGVILVLDIDYFKEVNDNNGHPYGDEVLIKLANTMQESFKSGICGRIGGDEFIIYLALDDANYDAIEKTIKEFKQNWQKNITTIDRSSTITLSIGGAYYPKHGKNYQELWSNADKALYLSKNNGRNRISIYQL | failed |
| MKVALGGTFEPLHEGHKKLIDVAIKLGGRDITIGVTSDRMARARIRSVLPFAIRAENVKRYVMRKYGFEPEIVKITNPYGKTLDVDFEYLVVSPETYEMALKINQKREELGKRKITIVKVDWMMAEDGKPISSTRIKRGEIDRYGGII | not failed |
| MKVASGSTATAAAGPSCALKAGKTASGAGEVVRCLSEQSVAISRCAGGAGARLPALLDEQQVNVLLYDMNGCYSRLKELVPTLPQNRKVSKVEILQHVIDYIRDLQLELNSESEVGTPGGRGLPVRAPLSTLNGEISALTAEAACVPADDRILCR | failed |
| MKVCYYYDGDVGNYYYGQGHPMKPHRIRMTHNLLLNYGLYRKMEIYRPHKANAEEMTKYHSDDYIKFLRSIRPDNMSEYSKQMQRFNVGEDCPVFDGLFEFCQLSTGGSVASAVKLNKQQTDIAVNWAGGLHHAKKSEASGFCYVNDIVLAILELLKYHQRVLYIDIDIHHGDGVEEAFYTTDRVMTVSFHKYGEYFPGTGDLRDIGAGKGKYYAVNYPLRDGIDDESYEAIFKPVMSKVMEMFQPSAVVLQCGSDSLSGDRLGCFNLTIKGHAKCVEFVKSFNLPMLMLGGGGYTIRNVARCWTYETAVALDTEIPNELPYNDYFEYFGPDFKLHISPSNMTNQNTNEYLEKIKQRLFENLRMLPHLEHHHHHH | failed |
| MKVFFVVTHLLGSGHLSRTLVLARAHLKAGHEVTLISGGMPVPHLSHDGITLVQLPALRSDGVNFTRLLDDKGDVASETLMRDRREKLLSTFEEAAPDVLVTELFPFGRRSLSDEFLALLNMAKARKNPPRICCSIRDILAPPSKPSKAARVRDIITEFYDAIIVHSDPDVTPLAASWPVTEDIAEKLRYSGFVANPPAPMHPDAPGQGEVLVSAGGGAVGDALYAAALGAAKLNGDLHWRVLVGGADAPAKCAALKEGCPANTTIEPARPDFRQMLHRAKASVSMCGYNTALDILQSGTPAVFVPFDAGGEVEQSLRASALAKMAGIRVVNSVDLQPEALLNTVHSVVQDPRRGPQTRGLDGASRTAELLETLVEASGHAG | failed |
| MKVFVIGAGLMGRGIAIAIASKHEVVLQDVSEKALEAAREQIPEELLSKIEFTTTLEKVKDCDIVMEAVFEDLNTKVEVLREVERLTNAPLCSNTSVISVDDIAERLDSPSRFLGVHWMNPPHVMPLVEIVISRFTDSKTVAFVEGFLRELGKEVVVCKGQSLVNRFNAAVLSEASRMIEEGVRAEDVDRVWKHHLGLLYTLFGPLGNLDYIGLDVAYYASLYLYKRFGDEKFKPPEWLQEKIKKGEVGVKAGKGIYEYGPKAYEERVERLKKLLRFLGLE | not failed |
| MKVGSQVIINTSHMKGMKGAEATVTGAYDTTAYVVSYTPTNGGQRVDHHKWVIQEEIKLEHHHHHH | failed |
| MKVIIIGGETTAYYLARSMLSRKYGVVIINKDRELCEEFAKKLKATIIHGDGSHKEILRDAEVSKNDVVVILTPRDEVNLFIAQLVMKDFGVKRVVSLVNDPGNMEIFKKMGITTVLNLTTLITNTVEALIFPDEFSSIIPLEQ | not failed |
| MKVIKSNKVTNKFKVSILISTYNKEKFIENTLNNILAQTMNKNDFELIIVDDCSTDNTLDIISKKIESFSNYQFVQLDENSGTPAKPRNLSIDLSKGKYIMFVDGDDWLPSDALENLYTLLKSNKTDYATGLTKYVYSDRIARSGVALSKIAYNKIGLKNFRKSFYHLAPAGRMMKSSVIKKNNIRFPEMIFGEDLQFFAEVFFNTKNISTTQDVVYCANRYDENISLVKSEASTVLNRIKWQNEAYRYLTKKYKNNKIFANLLYRIINKDILEGKFYKKGFIKEIDTLLPVFQDILNTIDNDFNSLDYADDTLNQHALTLIKNGDKEEIIDFVNFYLKKDEKPLYLSNDKYYYVYKENKYKKRMHIILQKIIKKDENIFLKLYSKNSELKYLEIKNRKDPTNYTVLEIKKHLFKTGEYTVQFKANELSKGKLALTVLDKDLNGAAIKSGMQFDFYETVNGNLGYIKKLEHHHHHH | not failed |
| MKVKILVDSTADVPFSWMEKYDIDSIPLYVVWEDGRSEPDEREPEEIMNFYKRIREAGSVPKTSQPSVEDFKKRYLKYKEEDYDVVLVLTLSSKLSGTYNSAVLASKEVDIPVYVVDTLLASGAIPLPARVAREMLENGATIEEVLKKLDERMKNKDFKAIFYVSNFDYLVKGGRVSKFQGFVGNLLKIRVCLHIENGELIPYRKVRGDKKAIEALIEKLREDTPEGSKLRVIGVHADNEAGVVELLNTLRKSYEVVDEIISPMGKVITTHVGPGTVGFGIEVLERKR | not failed |
| MKVLIGGYTKKTSKGIYELPFIGEDNEAHLEKAENIISVGGPTYFQKDGDLVFTINNAGDEGGISAFKLSDHGSNEIDRHLTPGASPAYIGINKEKKLLYTANYHTAVLSVFQYSNSGKLALVAQTTHKAESLGPRPEQVDGPHPHFFDETPAGNLVSCDLGNDTVDFYRLENNELKHLAQYKNEAGFGDRHIVFSKDGNYFYVVGELSSQINVVKFNENTWEFEDIATYKTIPEDFTEHNGAAALYITNDGKYIYNSNRGHNSITVFKVNDDHTLSLIQRISTFGDFPRDFNWDETQKYVVAANQNTDNATLYLRNGGNGTLTPIQTEIPVPEGTRVLFTKLEHHHHHH | failed |
| MKVNTWFGVLELDSNGKTLSSEVFPKDIRELALRSLSLRESRQNLPPEGFDLKTAALECGFTESLSEYYSLLHKVTLETVKLQVSQALTPDQRIIQAVEALDDINETTNSLSERLFEWYGGYFPESGLSGEELAVFISRYGSRENLPPEDPHYLKAKNSMGAKLEAADEVLLKGLAESVCSLYERRKQIEAYIESSMEILAPNLALLAGPMLGARLISIAGSLEKLAAFPSSTIQVIGASKALFKHLRSRAPSPKHGIIYSHPLINTSPWWVRGKVARALAAKLSLAARIDFYSAKRNPSLENELEEKIRKIRAENPRPPQKRQEIRAKPKKKRRKLEHHHHHH | not failed |
| MKVVERYIMRRAFVVFLAALVWTLAIVWTTQVLAKIDLVTDSGQSSLTFFEVAALILPSIIPIVVPFALVVAVAQTLSVMNSDSELVVVNAAGASRWTIVRPIMLLALAASVFSFAVDNGIDPYARQKNRALVAQSRADLLSLIIQEGTFRKIEDGLFLQIGERLPDNRLGGIFVADSREEGVNLVYYAKTGSVVERGGEKVLMMNDGVIHRKTLTGDLSVIRFTSYAFDMSAFMAAASEVTLLPKDQTTQYLLNPNVNDKLYQQAPQQYRAEIDQRFSEWLYSMVFALIALAVAGDARSHREARVNPLITAITISLFVRWLGFFAASKADEVPQYAYMVYGVPIVASAVAIWFIVSNRTMELPVAWADWMTNLASRVGDGWNALKLRWSRRGTSGQGIG | failed |
| MKVVILGSGSYSGTPKPLCNCENCSIARRNPAFRRTRFSLYIEEGKILVDPSPDLHYHLERLNKKVENVFITHAHFDHIFGVPDLQVYKKLIISSNTLGIKVAKELSRLAFGSEVPSGYEWRYEELQFWNEYSFDNFRVIHFPVIHSLEIAGGYLFEIKGRRIGVTGDTGPEILKDEKVKKLLEGVDILIVEMTKRESIPGVHLGVSDSIEFAKVVGASYTVFAHISHTNYSHEVLEKRVRESGVQGEVARDFTIIEVLEHHHHHH | failed |
| MKVVVVDGGGLMGVETALCVRDHGHEVALVQAPGDPHAPLSDEVAEALRGCSVLVDLAHQPSVDIGTLAEDHGLVVDEAALVDSWAGSTGALLRAGAAAGVRHHVCLSVVGVDRIGREGVFRALRNREAMARRSGIPYSILRATQTFDAAEDIATAATEDWIVWVPPAEVRPVSLTDVATLLAHTAVTRPVNGVREIAGPEQFRLDAFVRTALLTEAEYRQVRTDALSPFYGARLRPRDLLPGPDAFIARTTYREWFTGRPAPDTTS | failed |
| MKVYPKVSIVMPVYNSERYLAEAIESILDQTYNDFEFIIVDDGSTDESYNIISSYANKDNRIIVISREHRGLVDSLNEGINIARGKYIARMDADDISINNRIEKQFEFLELNKDVDILGTRIEAFGDIDEKQKTIYNSAFSIKFDSQNIEQVFLTSCAIPHPSVMFKKDSIVKLRGYRKEYDTAEDYDLWLRAIRNGYKIVRMDECLIKYRVHNKSKTAVEMFNPKMVEYTMKAKIDYINDTNKKDKVDYLIWGASTGGKLVKKVVESTTDKFNLIGFIDKYKEGEVDECRIYKPEDLMKLHSDYVFIATLPGKEEADEFLKNCGLKKFKEYISLVLEHHHHHH | failed |
| MKWLDRLKIANYHRKRYKQFGNDKARTLGWQDEYSQISRFEALTRSLCLEAVSILDIGCGFGDLLEYIESQNQYPARYVGIDLQKQFITKARKKAFKTPVNFICGDFSKLVLPQSDYVFASGSLNYKSSNANHTIEMIEKMYRAARIGCVFNLLDEEKLPSMRMLESHNKVGVLRYCRWLCPDAQLIEGYSDHDFTIVMIKKAEPVS | failed |
| MKWNSNLYDHKHSFVAEYGKSMINFVNVGKDQKILDLGCGTGVLTNELAKNGATVIGTDLSKNMIDKAKTNYPNLIFQVKDATNLSFKNEFDTVFSNAVFHWISNQEKLLHSIYTCLKDNGTLICEFGAQNNISQIQTAFEKVIEQKGYSYCSPFFFPSKEEYKLLLDQAGFEVKHIIEYDRPTPLADGEKGLRNWICQFFASDLLEFSDEQKEQILFETEKLCKNSIWKNNQWVADYRRIQIIAVKNKNNGTK | failed |
| MKWPWWPVCVPLSKRLTLPLPSTANPVVQPSRLALACANRLFEAADNRERFLQALMTPPAYPATVLWCGEPAAALPFAALPPLPWQPPWVSRFVAGSPTGQHPLHAAGAYYCLDSSSVFAAVPLLTLPQEPSLVIDVCAAPGGKSLFAWRSLHPRYLICNETIGKRVGKLIGNLKRCRVHPVGVTSWDSEVLAAEFQGTADVVIVDAPCSGQSLLAKGQKAEGCFHPLTIRHNQRRQKRILAAATTLVRPGGWLLYSTCTFSQDENEDVAAWLMAKFPHLLPQPVPALAAYQSHLAAFPCYRLWPHQGEGAGAFTILWQHQGKGESNPLPDLGNRRAFGDRWRWQSSSQPA | failed |
| MKWRCLIYIETRGDILFMTKWFNVGKIVNTHGVRGEIRVISRTDFPEERYKVGNTLYISNEKGTDYLPVKVTSHRQHKTFDLLTFEGYNNVDEVEKFKGSLIKVPEEQLGELAEGEYYYHEIIGCSVVTEEGEALGTIKEILSPGANDVWVIKRPKGQDLLIPYIDDVVLQVNIENKLVTIHVMEGLLLEHHHHHH | not failed |
| MKWYTKYLQVYEKPFSEAPQEIVEEVRNKLKLLQSDNPLVTVSLIGYNEEKHLLASLWSLSEMKCKYPIEIIGTDNDSKDQTATIYEATGIPYVIEHQHSCGHARLCGLKRAKGKYHINIDSDTMYPPHYVETMVDALERPGIVAVSSLWSYIPDKEHSWVGLKIYEFIRDIHLWIQSIKRPELSVRGLVFAYRTDYARQVGIRTDIRRGEDGSLALRLKEYGNIYFIRKRKARAITGYGTISADGSLFNSFKVRAIYALKNIGRVFTRKKEYKDEDDNLIKSLEHHHHHH | not failed |
